Positions count from the first letter of the chain named. “And” between values parts separate entries of the source, which are not always exact repeats. Equal values may be shown once. Where no end group is shown, it is not given here. FAM = 5(6)-carboxyfluorescein

One may read the Kd as the concentration at which binding is half-saturated. The term IC50 denotes the concentration that gives 50% inhibition.

One experiment has as its target Aurora-A. Conditions: fluorescence binding; ref Park et al. (2023) Figure 3B; cited from earlier work. The source says:
page 11: cycle control) in these cell lines is still useful. […] As for combined depletion of CEP192 and TPX2, this was very toxic in both U251 and RPE1 cells, unsurprising given that both proteins are essential for proliferation.

The test system of experiment [1] is His-tagged Aurora-A 122-403 or full-length (1-403). In words: Pull-down of Aurora-A by GST-tagged CEP192. The class given is binding, human. Conditions: Aurora-A 122-403 and 1-403, western blot. As for the experimental part: GST-tagged CEP192 constructs were overexpressed in LB and purified on glutathione resin using standard methods. Tagged proteins were eluted in 100 mM TRIS pH 7.5, 500 mM NaCl, 1 mM DTT, 10% Glycerol, 10 mM reduced glutathione, before dialysis in elution buffer without glutathione and storage at −80 °C. About 250 μg of GST-tagged CEP192 constructs or GST as a control were immobilised on 50 μl of glutathione resin (GE healthcare) per sample equilibrated in pull-down buffer (50 mM tris pH 7.5, 300 mM NaCl, 1 mM DTT, 5 mM magnesium chloride, 10% glycerol, 0.1% Tween 20). After 60 min of immobilisation the beads were washed three times in 900 μl of binding buffer to remove any excess protein. About 35 μg of His-tagged Aurora-A 122–403 or full-length protein (1–403) was added to samples of immobilised truncation or GST control. These were left to bind for 60 min on the roller. The beads were pelleted and washed three times in 900 μl of binding buffer. The resin was resuspended in 100 μl of SDS loading dye. After separation on an SDS-PAGE gel, these were transformed onto nitrocellulose membranes before probing with anti-GST and anti-His primary antibodies.
In general terms: A western blot detects proteins with antibodies after separation by electrophoresis.

The target in experiment [2] is T1, Aurora-A^M7KD (Aurora-A 122–403 D274N C290A C393A N332A Q335A T347A D350A) (human, UniProt O14965 122-403, D274N | C290A | C393A | N332A | Q335A | T347A | D350A).
T1 construct: Aurora-A kinase domain, human, residues 122-403, with crystal-contact mutations in the C-lobe; also called Aurora-A^M7KD-D; Aurora^M7KD; source: E. coli, purified; not shown: His6, N-terminal, cleaved
T1 sequence (looked up): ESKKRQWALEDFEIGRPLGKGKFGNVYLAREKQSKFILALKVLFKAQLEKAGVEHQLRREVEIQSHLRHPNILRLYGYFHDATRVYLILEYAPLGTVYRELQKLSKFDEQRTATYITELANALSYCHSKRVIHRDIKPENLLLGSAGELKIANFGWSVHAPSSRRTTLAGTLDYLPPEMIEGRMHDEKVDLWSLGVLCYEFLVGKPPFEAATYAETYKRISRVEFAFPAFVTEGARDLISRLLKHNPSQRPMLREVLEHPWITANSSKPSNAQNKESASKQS
In words: fluorescence polarisation; direct fluorescence anisotropy: Aurora-A diluted across the plate, 50 nM tracer FAM-CEP192 501–533; 25 mM HEPES pH 7.5, 150 mM NaCl, 2 mM DTT, 5 mM MgCl2, 0.01% Tween 20; 1 h at room temperature. Conditions: both partners purified. A general note: In fluorescence polarisation assays a small probe gives low polarisation when free and higher when bound to something large.

Experiment [3] concerns the target T2, phosphorylated Aurora-A^CAKD (Aurora-A 122–403 C290A C393A, not co-expressed with lambda phosphatase) (human, UniProt O14965 122-403, C290A | C393A, phosphorylated (sites of this preparation not printed in the text shown)).
T2 construct: Aurora-A kinase domain, human, residues 122-403; also called phosphorylated kinase; Aurora-A 122–403 C290A C393A phosphorylated protein; source: E. coli B834, not co-expressed with lambda phosphatase, purified (HisTrap, TEV cleavage, SEC); not shown: His6, N-terminal, cleaved
T2 sequence (looked up): T1 sequence (looked up) with N153D, A211N, A214Q, A226T, A229D
Described as above. Conditions: both partners purified.

Experiment [4] has as its target T3, Aurora-A^CAKD (Aurora-A kinase domain, aa 122–403 C290A, C393A), unphosphorylated (human, UniProt O14965 122-403, C290A | C393A).
T3 construct: Aurora-A kinase domain, human, residues 122-403, variant lacking surface cysteines; also called Aurora-A 122–403 C290A C393A; unphosphorylated Aurora-A^CAKD; source: E. coli RIL, co-expressed with lambda phosphatase, purified (HisTrap, TEV cleavage, SEC); not shown: His6, N-terminal, cleaved
T3 sequence (looked up): T1 sequence (looked up) with N153D, A211N, A214Q, A226T, A229D
The description is as above. Conditions: both partners purified.

In experiment [5] the target is T2, phosphorylated Aurora-A^CAKD (Aurora-A …). Briefly: ITC; 250 μM Aurora-A in the syringe, 25 μM CEP192 construct in the cell; 25 °C; 20 mM tris pH 7.5, 200 mM NaCl, 10% glycerol, 5 mM MgCl2. Conditions: both partners purified. For orientation: ITC needs no label: the signal is the heat of the interaction.
In experiment [6] the target is T3, Aurora-A^CAKD (Aurora-A kinase domain, …). The description is as above. Conditions: both partners purified.
For experiment [7], the target named is T2, phosphorylated Aurora-A^CAKD (Aurora-A …). Briefly: cell-based or functional assay.
Experiment [8] addresses T3, Aurora-A^CAKD (Aurora-A kinase domain, …). Briefly: fluorescence polarisation; competition: 10 μM unphosphorylated Aurora-A^CAKD preincubated with 100 nM FAM-TPX2 7-43, CEP192 competitor serially diluted; 25 mM HEPES pH 7.5, 150 mM NaCl, 2 mM DTT, 5 mM MgCl2, 0.01% Tween 20. Conditions: both partners purified.
The target is the same in experiment [9]. Briefly: fluorescence polarisation; competition: 25 μM Aurora-A kinase domain preincubated with 100 nM FAM-TACC3 522-536, CEP192 competitor serially diluted; 25 mM HEPES pH 7.5, 150 mM NaCl, 2 mM DTT, 5 mM MgCl2, 0.01% Tween 20. Conditions: both partners purified.

Regarding “FAM-CEP192 506-536: labelled peptide of Park et al 2023”, the Kd on Aurora-A is 700 nM.

B1: CEP192 405-649: GST-tagged CEP192 fragment 405-649 (protein, UniProt Q8TEP8 405-649, looked up, fragment)
chain: HMDGCLDTETPTVSIQENVDVASLKPISDSGINFTDAIWSPTCERRTCECHESIEKNKDKTDLPQSVVYQNEEGRWVTDLAYYTSFNSKQNLNVSLSDEMNEDFRSGSEAFDLIAQDEEEFNKEHQFIQEENIDAHNTSVALGDTSWGATINYSLLRKSRSTSDLDKDDASYLRLSLGEFFAQRSEALGCLGGGNNVKRPSFGYFIRSPEKREPIALIRKSDVSRGNLEKEMAHLNHDLYSGDLN
modifications: GST tag
Consider B1, for which the “co-precipitation of Aurora-A” value in experiment [1] was “able to interact significantly with Aurora”.

B2: FAM-CEP192 501–533 (peptide, UniProt Q8TEP8 501-533, looked up)
peptide: {FAM}-SDEMNEDFRSGSEAFDLIAQDEEEFNKEHQFIQ
notes: Made on Rink amide resin and labelled on resin after synthesis, so N-terminal label and C-terminal amide are likely; MS data of the peptides are in the source data; source: synthetic peptide
With B2, the Kd in [2] was 1250 nM; in [3] it was 370 nM; in experiment [4], 420 nM and 1170 nM.

B3: human CEP192 468–533 (domain or fragment, UniProt Q8TEP8 468-533, looked up)
chain: PQSVVYQNEEGRWVTDLAYYTSFNSKQNLNVSLSDEMNEDFRSGSEAFDLIAQDEEEFNKEHQFIQ
notes: also called CEP192_(506-527_F); source: E. coli B834 RIL, purified (HisTrap, TEV cleavage, SEC); for crystallisation co-expressed with Aurora-A^M7KD and co-purified; not shown: His6, N-terminal, cleaved; SUMO, N-terminal, cleaved
Take B3: the figures for the Kd in experiment [5] and in experiment [6] were 134 nM and 80.6 nM, respectively. Besides, in [7], the “ADP-Glo, 10 nM phosphorylated Aurora-A^CAKD with kemptide: IC50 of partial inhibition of kinase activity” value was determined as 18 nM. Moreover, the IC50 in [8] was 3700 nM; in experiment [9], 5000 nM.

(Values after PMC11574021, “CEP192 localises mitotic Aurora-A activity by priming its interaction with TPX2” (The EMBO Journal, 2024).)
